Consider two substances from US20120027722A1.

In assay [1] the target is soluble HCV E2 truncated at amino acid 661 (sE2661), His-tagged (Hepatitis C virus (isolate not stated)). The experiment in a line: SPR (BIAcore), sE2. A general note: In SPR one partner is held on a chip, and binding of the other changes the refractive index at the surface.
The target is the same in assay [2]. The experiment in a line: SPR (BIAcore A100), antibody captured on anti-Fc chip, sE2 injected 1.56-50 nM, 1:1 Langmuir fit.

As for AP33 Fab, the equilibrium dissociation constant (Kd) – broadly, the free concentration of one partner at which half of the binding sites on the other are occupied at equilibrium, for simple one-to-one binding – in assay [1] was found to be 50 nM.

In the case of AP33 antibody (as used in Example 2), the Kd in assay [2] was 5 to 8 nM.
